{"source": "patent US20170233494", "target": "mouse MBL (mannose-binding lectin of mouse serum)", "data": [{"protein": "recombinant mouse MASP-2 (rMASP-2) (protein) SKWPEPVFGRLVSPGFPEKYADHQDRSWTLTAPPGYRLRLYFTHFDLELSYRCEYDFVKLSSGTKVLATLCGQESTDTEQAPGNDTFYSLGPSLKVTFHSDYSNEKPFTGFEAFYAAEDVDECRVSLGDSVPCDHYCHNYLGGYYCSCRAGYILHQNKHTCSALCSGQVFTGRSGYLSSPEYPQPYPKLSSCTYSIRLEDGFSVILDFVESFDVETHPEAQCPYDSLKIQTDKGEHGPFCGKTLPPRIETDSHKVTITFATDESGNHTGWKIHYTSTARPCPDPTAPPNGSISPVQATYVLKDRFSVFCKTGFELLQGSVPLKSFTAVCQKDGSWDRPMPECSIIDCGPPDDLPNGHVDYITGPQVTTYKAVIQYSCEETFYTMSSNGKYVCEADGFWTSSKGEKLPPVCEPVCGLSTHTIGGRIVGGQPAKPGDFPWQVLLLGQTTAAAGALIHDNWVLTAAHAVYEKRMAASSLNIRMGILKRLSPHYTQAWPEEIFIHEGYTHGAGFDNDIALIKLKNKVTINGSIMPVCLPRKEAASLMRTDFTGTVAGWGLTQKGLLARNLMFVDIPIADHQKCTTVYEKLYPGVRVSANMLCAGLETGGKDSCRGDSGGALVFLDNETQRWFVGGIVSWGSINCGAAGQYGVYTKVINYIPWNENIISNF", "values": [{"measurement": "C4 deposition on mannan-coated wells (sMAP-/- mouse serum)", "value": "the amount of C4 was restored by up to 46% of that of wild-type serum in a dose-dependent manner and reached a plateau"}]}]}
